Data published in patent publication US20200270365A1 (JIANGSU HENGRUI MEDICINE, published 2020).
Numbering of substitutions follows the chain as printed. Each block holds one binder with its values, some of them ahead of it.

Key:
[1] = target: T1, PCSK9 protein inserted with biotin receiving peptide BP15 and His-tag: PCSK9-BP15-His6 (human, UniProt Q8NBP7 153-692; A8T644 31-152, biotin on the BP15 biotin receiving peptide (labeled during the expression)); assay: ELISA, biotin PCSK9 on streptavidin plate
T1 construct: also called WT PCSK9; PCSK9 WT
Experimental: The binding ability of anti-PCSK9 antibodies of the present invention to PCSK9 protein (WT PCSK9, SEQ ID NO: 5) was detected by measuring the amounts of antibodies binding to PCSK9 immobilized on the ELISA plate.
(§1) Streptavidin (sigma, CAT #S4762) was diluted to 2 μg/ml with PBS and was added into a 96-well ELISA plate, at 4° C. for overnight. The plate was washed and then was blocked with Tris buffer (including 0.9 mM CaCl₂, 0.05% Tween 20 and 5% skim milk) at 37° C. for 2 hours. Then the plate was washed again and 100 μl/well of biotin-labeled PCSK9 (produced in-house, diluted with Tris buffer containing 0.9 mM CaCl₂, 0.05% Tween 20 and 1% skim milk) was added and incubated at 37° C. for 1 hour. After the wash step various concentrations of diluted PCSK9 antibody samples was added to the plate and incubated at 37° C. for 1 hour. […] Then the plate was washed and tetramethyl brenzidine solution was added for development. Finally, the stop buffer was added and the OD450 value was measured on the Microplate reader, and then EC50 was calculated.

[2] = target: T2, PCSK9 D374Y mutant protein inserted with biotin receiving peptide BP15 and His-tag: PCSK9-D374Y-BP15-His6 (human, UniProt Q8NBP7 153-692; A8T644 31-152, biotin on the BP15 biotin receiving peptide); assay: ELISA, biotin PCSK9-Y on streptavidin plate
T2 construct: also called PCSK9-Y; mutant PCSK9
Experimental: The binding ability of anti-PCSK9 antibodies of the present invention to PCSK9-Y protein (mutant PCSK9, SEQ ID NO: 6) was detected by measuring the amounts of antibodies binding to PCSK9-Y immobilized on the ELISA plate.
as §1, with “hours. The” for “hours. Then the”, “washed” for “washed again”, “biotin-labeled PCSK9-Y” for “biotin-labeled PCSK9”, “wash step,” for “wash step”, “samples were” for “samples was”

[3] = target: T2, PCSK9 D374Y mutant protein inserted …; assay: competition ELISA, LDLR-FC coated, biotin PCSK9-Y + antibody
Experimental: The blocking ability of PCSK9 antibodies according to the present invention for the binding of LDLR-FC and PCSK9-Y (mutant PCSK9, SEQ ID NO: 6) was tested by measuring the amount of PCSK9-Y binding to LDLR in the presence of the antibodies.
(§2) LDLR-FC (produced in-house, with sequence of SEQ ID NO: 8) was diluted to 2 μg/ml with phosphate buffer and was added into the 96-well ELISA plate, at 4° C. overnight. The plate was washed and then blocked with Tris buffer (including 0.9 mM CaCl₂, 0.05% Tween 20 and 5% skim milk) at 37° C. for 2 hours. Then the plate was washed and 100 μl/well of mixture of biotin-labeled mutant PCSK9 (diluted to 1 μg/ml with Tris buffer containing 0.9 mM CaCl₂, 0.05% Tween 20 and 1% skim milk) and antibody samples (diluted with Tris buffer containing 0.9 mM CaCl₂, 0.05% Tween 20 and 1% skim milk) was added and incubated at 37° C. for 1 hour. Then the plate was washed again and horseradish peroxidase-streptavidin (sigma, CAT #S2438) was added and incubated at 37° C. for 1 hour. Then the plate was washed and tetramethyl brenzidine solution was added for development. Finally, the stop buffer was added and OD450 value was measured on the Microplate reader, then IC50 value was calculated.

[4] = target: T1, PCSK9 protein inserted with biotin …; assay: competition ELISA, LDLR-FC coated, biotin PCSK9 + antibody
Experimental: The blocking ability of PCSK9 antibodies according to the present invention for the binding of LDLR-FC (produced in-house, with sequence of SEQ ID NO: 8) and PCSK9 (SEQ ID NO: 5) was tested by measuring the amount of PCSK9 binding to LDLR in the presence of the antibodies.
as §2, with “LDLR-FC” for “LDLR-FC (produced in-house, with sequence of SEQ ID NO: 8)”, “to 5” for “to 2”, “plate, kept” for “plate,”, “biotin-labeled” for “biotin-labeled mutant”, “to 2” for “to 1”

EC50 [1]: 0.00312 mg/L
EC50 [2]: 0.00525 mg/L
IC50 [3]: 0.123 mg/L
IC50 [4]: 0.598 mg/L
B1: h011-3050 (antibody, V domains shown)
VH: QVQLVQSGAEVKKPGASVKVSCKASGYTFTGYTIHWVRQAPGQGLEWMGEILPSSTYTKFNQKFKDRVTMTRDTSISTAYMELSRLRSDDTAVYYCARERIYSNYWFFDVWGQGTTVTVSS
VL: DIVMTQSPSSLSASVGDRVTITCKASQNVYTAVAWYQQKPGKSPKLLIYSASNRYTGVPSRFSGSGSGTDFTLTISSLQPEDFATYFCQQYSSYPYTFGGGTKVEIK

EC50 [1]: 0.00351 mg/L
EC50 [2]: 0.00851 mg/L
IC50 [3]: 0.23 mg/L
IC50 [4]: 1.04 mg/L
B2: h011-3118 (antibody, V domains shown)
VH: B1 VH with E50Y, L52N
VL: B1 VL with T31W, A32E, A34V

EC50 [1]: 0.00631 mg/L
EC50 [2]: 0.0066 mg/L
IC50 [3]: 0.226 mg/L
IC50 [4]: 0.74 mg/L
B3: h011-3191 (antibody, V domains shown)
VH: B1 VH with E50Y, L52V
VL: B1 VL

EC50 [1]: 0.0047 mg/L
EC50 [2]: 0.0221 mg/L
IC50 [3]: 0.871 mg/L
IC50 [4]: 0.621 mg/L
B4: h011-3193 (antibody, V domains shown)
VH: B1 VH with E50Y, L52N
VL: B1 VL with A34D

EC50 [1]: 0.00378 mg/L
EC50 [2]: 0.00695 mg/L
IC50 [3]: 0.174 mg/L
IC50 [4]: 0.662 mg/L
B5: h011-3121 (antibody, V domains shown)
VH: B1 VH with E50Y, L52N
VL: B1 VL with Y91L, Y94Q, Y96E

EC50 [1]: 0.00389 mg/L
EC50 [2]: 0.0123 mg/L
IC50 [3]: 0.129 mg/L
IC50 [4]: 0.604 mg/L
B6: h011-3073 (antibody, V domains shown)
VH: B1 VH with E50Y, L52N, R100N, Y102F, V110R
VL: B1 VL

EC50 [1]: 0.00664 mg/L
EC50 [2]: 0.127 mg/L
IC50 [3]: 2.36 mg/L
IC50 [4]: 0.698 mg/L
B7: h011-3192 (antibody, V domains shown)
VH: B1 VH with E50Y, L52N
VL: B1 VL with A32E

EC50 [1]: 0.005 mg/L
EC50 [2]: 0.00478 mg/L
IC50 [3]: 0.222 mg/L
IC50 [4]: 0.837 mg/L
B8: h011-3190 (antibody, V domains shown)
VH: B1 VH with L52N
VL: B1 VL

EC50 [1]: 0.00483 mg/L
EC50 [2]: 0.00668 mg/L
IC50 [3]: 0.173 mg/L
IC50 [4]: 0.567 mg/L
B9: h011-3147 (antibody, V domains shown)
VH: B1 VH with L52I
VL: B1 VL

EC50 [1]: 0.00441 mg/L
EC50 [2]: 0.0132 mg/L
IC50 [3]: 0.391 mg/L
IC50 [4]: 0.582 mg/L
B10: h011-3095 (antibody, V domains shown)
VH: B1 VH with E50Y, L52N
VL: B1 VL with S50E

EC50 [1]: 0.00511 mg/L
EC50 [2]: 0.0144 mg/L
IC50 [3]: 0.228 mg/L
IC50 [4]: 0.629 mg/L
B11: h011-3070 (antibody, V domains shown)
VH: B1 VH with E50Y, L52N, R100N, S103F, V110R
VL: B1 VL

EC50 [1]: 0.00498 mg/L
EC50 [2]: 0.00681 mg/L
IC50 [3]: 0.226 mg/L
IC50 [4]: 1.22 mg/L
B12: h011-3111 (antibody, V domains shown)
VH: B1 VH with E50Y, L52N
VL: B1 VL with T31W, A32E, A34D

EC50 [1]: 0.0045 mg/L
EC50 [2]: 0.00704 mg/L
IC50 [3]: 0.156 mg/L
IC50 [4]: 0.666 mg/L
B13: h011-3187 (antibody, V domains shown)
VH: B1 VH with E50Y, L52N
VL: B1 VL with Y91L, Y94S, Y96E

EC50 [1]: 0.00538 mg/L
EC50 [2]: 0.00711 mg/L
IC50 [3]: 0.213 mg/L
IC50 [4]: 0.911 mg/L
B14: h011-3120 (antibody, V domains shown)
VH: B1 VH with E50Y, L52N
VL: B1 VL with Y91F, S93W, Y94F

EC50 [1]: 0.00469 mg/L
EC50 [2]: 0.0169 mg/L
IC50 [3]: 0.579 mg/L
IC50 [4]: 0.628 mg/L
B15: h011-3194 (antibody, V domains shown)
VH: B1 VH with E50Y, L52N
VL: B1 VL with Y91L

EC50 [1]: 0.00221 mg/L
EC50 [2]: 0.00678 mg/L
IC50 [3]: 0.233 mg/L
IC50 [4]: 0.857 mg/L
B16: h011-3181 (antibody, V domains shown)
VH: B1 VH with E50Y, L52N
VL: B1 VL with Y91L, Y96D

EC50 [1]: 0.00435 mg/L
EC50 [2]: 0.00492 mg/L
IC50 [3]: 0.175 mg/L
IC50 [4]: 0.495 mg/L
B17: h011-3133 (antibody, V domains shown)
VH: B1 VH with T33E, E50Y, L52N, S55A
VL: B1 VL

EC50 [1]: 0.00539 mg/L
EC50 [2]: 0.0109 mg/L
IC50 [3]: 0.312 mg/L
IC50 [4]: 0.73 mg/L
B18: h011-3065 (antibody, V domains shown)
VH: B1 VH with T33D, E50Y, L52N
VL: B1 VL

EC50 [1]: 0.00529 mg/L
EC50 [2]: 0.0112 mg/L
IC50 [3]: 0.23 mg/L
IC50 [4]: 1.67 mg/L
B19: h011-3174 (antibody, V domains shown)
VH: B1 VH with E50Y, L52N, Y102F
VL: B1 VL with S50Q

EC50 [1]: 0.00369 mg/L
EC50 [2]: 0.00606 mg/L
IC50 [3]: 0.162 mg/L
IC50 [4]: 0.542 mg/L
B20: h011-3058 (antibody, V domains shown)
VH: B1 VH with L52N, S55G
VL: B1 VL

EC50 [1]: 0.00381 mg/L
EC50 [2]: 0.00989 mg/L
IC50 [3]: 0.287 mg/L
IC50 [4]: 0.706 mg/L
B21: h011-3093 (antibody, V domains shown)
VH: B1 VH with E50Y, L52N
VL: B1 VL with S50E, A51M, S52V
